According to PMC10199079, “ERK and USP5 govern PD-1 homeostasis via deubiquitination to modulate tumor immunotherapy” (Nature Communications, 2023):
Each block holds one molecule with its values, some of them ahead of it.

How the values were obtained:
USP5 [1] = molecular target: USP5 (UniProt P45974); assay: anti-HA co-immunoprecipitation, immunoblot; conditions: reference: PD-1 wild type; sites T234
USP5 [2] = molecular target: USP5 (UniProt P45974); assay: GST-USP5 pull-down from cell lysate; conditions: reference: PD-1-cHA wild type lysate; sites T234
USP5 [3] = molecular target: USP5 (UniProt P45974); assay: biotin-peptide streptavidin pull-down; conditions: reference: unphosphorylated PD-1 peptide; sites T234
USP5 UBA1/2 domains = USP5 UBA1/2 domains (UniProt P45974); assay: biotin-peptide streptavidin pull-down; conditions: reference: unphosphorylated PD-1 peptide; sites T234
USP5 [4] = molecular target: USP5 (UniProt P45974); assay: GST pull-down with purified His-USP5; conditions: reference: GST-PD-1 (192-288) wild type, ERK1-treated; sites T234
His-USP5 = molecular target: T1, His-USP5 (human, UniProt P45974 1-858); assay: pull-down; bacterially purified GST-PD-1 (192-288) phosphorylated by ERK1 in vitro, then GST pull-down with purified recombinant His-USP5, immunoblot; conditions: both partners purified
T1 construct: recombinant human USP5, His-tagged; also called recombinant human USP5 protein; purified recombinant His-USP5; source: bought: Sino biological (12772-H08B), purified recombinant USP5 from baculovirus-insect cells
T1 sequence (looked up): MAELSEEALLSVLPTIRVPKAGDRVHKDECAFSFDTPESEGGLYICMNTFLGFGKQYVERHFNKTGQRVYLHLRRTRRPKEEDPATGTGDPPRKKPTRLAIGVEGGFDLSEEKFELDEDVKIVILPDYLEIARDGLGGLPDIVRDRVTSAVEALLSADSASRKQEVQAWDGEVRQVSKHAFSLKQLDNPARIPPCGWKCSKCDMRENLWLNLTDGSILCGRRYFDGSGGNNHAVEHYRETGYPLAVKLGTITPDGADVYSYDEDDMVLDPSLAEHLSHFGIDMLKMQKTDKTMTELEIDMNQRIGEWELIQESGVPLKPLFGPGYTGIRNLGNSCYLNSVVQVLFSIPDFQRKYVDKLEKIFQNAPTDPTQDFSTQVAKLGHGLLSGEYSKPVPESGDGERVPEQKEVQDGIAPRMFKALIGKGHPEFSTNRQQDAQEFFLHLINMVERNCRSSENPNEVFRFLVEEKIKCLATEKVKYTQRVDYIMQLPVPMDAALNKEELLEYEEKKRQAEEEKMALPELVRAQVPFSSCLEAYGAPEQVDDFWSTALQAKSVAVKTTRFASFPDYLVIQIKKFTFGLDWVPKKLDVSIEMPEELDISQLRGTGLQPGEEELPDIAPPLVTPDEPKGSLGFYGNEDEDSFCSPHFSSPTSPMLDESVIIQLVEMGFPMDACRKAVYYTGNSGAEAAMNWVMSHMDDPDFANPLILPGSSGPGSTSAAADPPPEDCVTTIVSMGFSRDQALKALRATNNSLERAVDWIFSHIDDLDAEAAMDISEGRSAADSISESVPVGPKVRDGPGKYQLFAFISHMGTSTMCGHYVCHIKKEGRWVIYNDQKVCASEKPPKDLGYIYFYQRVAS

Molecule: PD-1 (from UniProt Q15116) PD-1 T234A
binding against the reference (USP5 [1]): weaker

Molecule: PD-1 (from UniProt Q15116) pT234 PD-1 peptide
binding against the reference (USP5 [3]): gained
binding against the reference (USP5 UBA1/2 domains): gained

Molecule: PD-1 cytoplasmic region, 192-288 (from UniProt Q15116) GST-PD-1 (192-288) T234A, ERK1-treated
binding against the reference (USP5 [4]): weaker

Further lines, results first:

binding against the reference (USP5 [2]): weaker
Molecule: PD-1 (from UniProt Q15116) PD-1-cHA T234A lysate

binding result (His-USP5): binds
B1: ERK1-phosphorylated GST-PD-1 (192-288) (domain or fragment, human, UniProt Q15116 192-288, looked up)
chain: CSRAARGTIGARRTGQPLKEDPSAVPVFSVDYGELDFQWREKTPEPPVPCVPEQTEYATIVFPSGMGTSSPARRGSADGPRSAQPLRPEDGHCSWPL
modifications: phosphorylated by ERK1 in vitro (the paper maps the ERK site to Thr234)
notes: source: E. coli BL21, purified, then phosphorylated by ERK1 in vitro
